# Reference: patent US20220402995A1 (TOSOH, published 2022)
# Numbering of substitutions follows the chain as printed.
# B1: AVR3HC (protein having an immobilization tag at the C-terminus of AVR3) (receptor)
# chain: MGSAGESVQITLPKNEVQLNAYVLQEPPKGETCTYDWQLITHPRDYSGEMEGKHSQILKLSKLTPGLYEFKVIVEGQNAHSEGYVNVTVKPEPRKNRPPIAIVSPQFQEISLPTTSTVIDGSQSTDDDKIVQYHWEELKGPLREEKISEDTAILKLSKLVPGNYTFRLTVVDSDGATNSTTANLTVNKAVDHHHHHHCRNDTCG
# notes: Immobilised on gel; also called AVR3HC-immobilized gel
# B2: AVR8gHC (protein having an immobilization tag at the C-terminus of AVR8g) (receptor)
# chain: B1 chain with V8D, K53E, K62N, K90E, N178D
# notes: Immobilised on gel; also called AVR8gHC-immobilized gel
# B3: wild-type AAV-binding protein (extracellular domains 1 and 2, PKD1 and PKD2, of KIAA0319L/AAVR, positions 312-500 of SEQ ID NO: 1, with His tag) (receptor)
# chain: MGSAGESVQITLPKNEVQLNAYVLQEPPKGETYTYDWQLITHPRDYSGEMEGKHSQILKLSKLTPGLYEFKVIVEGQNAHGEGYVNVTVKPEPRKNRPPIAIVSPQFQEISLPTTSTVIDGSQSTDDDKIVQYHWEELKGPLREEKISEDTAILKLSKLVPGNYTFSLTVVDSDGATNSTTANLTVNKAVDHHHHHH
# notes: Expressed in E. coli; tested as extract, culture supernatant or purified protein; also called wild-type AVR; product of pET-AAVRD2
# B4: AAV-binding protein No. 16 (Leu369Gln) (receptor)
# chain: B3 chain with L60Q
# B5: AAV-binding protein No. 9 (Pro352Leu) (receptor)
# chain: B3 chain with P43L
# B6: AVR7b (AAV-binding protein No. 91; AVR5e + Val317Asp, Lys371Asn) (receptor)
# chain: B3 chain with V8D, Y33C, K62N, G81S, K90E, S167R, N178D
# B7: AAV-binding protein No. 29 (Leu333Val, Tyr342Cys) (receptor)
# chain: B3 chain with L24V, Y33C
# B8: AAV-binding protein No. 53 (Asp354Gly, Leu369Gln, Lys455Arg) (receptor)
# chain: B3 chain with D45G, L60Q, K146R
# B9: AVR5b (Ile319Phe, Lys323Glu, Tyr342Cys, Gly390Ser, Ser476Arg) (receptor)
# chain: B3 chain with I10F, K14E, Y33C, G81S, S167R
# B10: AAV-binding protein No. 45 (Asn329Asp, Tyr342His, Tyr355Cys) (receptor)
# chain: B3 chain with N20D, Y33H, Y46C
# B11: AAV-binding protein No. 47 (Asn329Tyr, Tyr377Cys, Arg406Ser) (receptor)
# chain: B3 chain with N20Y, Y68C, R97S
# B12: AAV-binding protein No. 30 (Glu340Gly, Tyr342Cys) (receptor)
# chain: B3 chain with E31G, Y33C
# B13: AAV-binding protein No. 36 (Tyr355His, Asn387Ser) (receptor)
# chain: B3 chain with Y46H, N78S
# B14: AVR4a (Ile319Phe, Tyr342Cys, Gly390Ser, Ser476Arg) (receptor)
# chain: B3 chain with I10F, Y33C, G81S, S167R
# B15: AVR8g (Val317Asp, Tyr342Cys, Lys362Glu, Lys371Asn, Gly390Ser, Lys399Glu, Ser476Arg, Asn487Asp) (receptor)
# chain: B3 chain with V8D, Y33C, K53E, K62N, G81S, K90E, S167R, N178D
# B16: AAV-binding protein No. 49 (Tyr331Cys, Thr343Met, Tyr355Cys) (receptor)
# chain: B3 chain with Y22C, T34M, Y46C
# B17: AVR7a (AAV-binding protein No. 93; AVR5e + Asn324Asp, Lys362Glu) (receptor)
# chain: B3 chain with N15D, Y33C, K53E, G81S, K90E, S167R, N178D
# B18: AAV-binding protein No. 43 (Leu321Pro, Tyr342Asn, Ala461Ser) (receptor)
# chain: B3 chain with L12P, Y33N, A152S
# B19: AVR4d (Tyr342Cys, Gly390Ser, Ser476Arg, Asn487Asp) (receptor)
# chain: B3 chain with Y33C, G81S, S167R, N178D
# B20: AVR8a (Val317Asp, Asn324Asp, Tyr342Cys, Lys362Glu, Gly390Ser, Lys399Glu, Ser476Arg, Asn487Asp) (receptor)
# chain: B3 chain with V8D, N15D, Y33C, K53E, G81S, K90E, S167R, N178D
# B21: AVR5e (Tyr342Cys, Gly390Ser, Lys399Glu, Ser476Arg, Asn487Asp) (receptor)
# chain: B3 chain with Y33C, G81S, K90E, S167R, N178D
# B22: AVR3 (AAV-binding protein No. 75; Tyr342Cys, Gly390Ser, Ser476Arg) (receptor)
# chain: B3 chain with Y33C, G81S, S167R
# B23: AVR2 (AAV-binding protein No. 32, Tyr342Cys-Gly390Ser substitution product) (receptor)
# chain: B3 chain with Y33C, G81S
# Columns and labels:
# [1] = molecular target: T1, AAV2-EGFP (AAV vector of serotype 2 carrying an EGFP gene) (AAV2, UniProt P03135 1-735; P03135 1-598; P03135 1-533); experiment: mini column of immobilised protein loaded to breakthrough; AAV2-EGFP recovered by elution at pH 3.0, qPCR
# T1 construct: Genome-containing AAV2 particle; amounts counted as vector genomes (VG) by qPCR
# [2] = molecular target: T2, VLP2 (virus-like particles of AAV2) (AAV2, UniProt P03135 1-735; P03135 1-598; P03135 1-533); experiment: ELISA on VLP2; A450 after 50.3°C 15 min / untreated
# T2 construct: Empty AAV2 capsid; background says about 60 protein molecules, VP1:VP2:VP3 = 1:1:10; Immobilised on the ELISA plate
# [3] = molecular target: T2, VLP2 (virus-like particles of AAV2); experiment: ELISA on VLP2; A450 after 66.1°C 15 min / untreated
# [4] = molecular target: T2, VLP2 (virus-like particles of AAV2); experiment: ELISA on VLP2; binding after 43°C 15 min / untreated
# [5] = molecular target: T2, VLP2 (virus-like particles of AAV2); experiment: ELISA on VLP2; A450 after pH 2.5 30°C 2 h / untreated
# [6] = molecular target: T2, VLP2 (virus-like particles of AAV2); experiment: ELISA on VLP2; A450 after pH 2.5 30°C 24 h / untreated
# [7] = molecular target: T2, VLP2 (virus-like particles of AAV2); experiment: ELISA on VLP2; binding after pH 3.0 61.0°C 15 min / untreated
# [8] = molecular target: T2, VLP2 (virus-like particles of AAV2); experiment: ELISA on VLP2; A450 after pH 3.0 51.5°C 15 min / 25°C
# [9] = molecular target: T2, VLP2 (virus-like particles of AAV2); experiment: ELISA on VLP2; A450 after pH 3.0 60.1°C 15 min / 25°C
# [10] = molecular target: T2, VLP2 (virus-like particles of AAV2); experiment: ELISA on VLP2; A450 after pH 3.0 66.1°C 15 min / 25°C
# [11] = molecular target: T2, VLP2 (virus-like particles of AAV2); experiment: ELISA on VLP2; A450 after pH 3.0 80.8°C 15 min / 25°C
# [12] = molecular target: T2, VLP2 (virus-like particles of AAV2); experiment: ELISA on VLP2; A450 after pH 3.0 89.8°C 15 min / 25°C
# [13] = molecular target: T2, VLP2 (virus-like particles of AAV2); experiment: ELISA on VLP2; binding after pH 10.0 41.2°C 15 min / untreated
# [14] = molecular target: T2, VLP2 (virus-like particles of AAV2); experiment: ELISA on VLP2; binding after pH 3.0 51.1°C 15 min / untreated;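 also: binding of the heat-treated AAV-binding protein to VLP2, expressed as a percentage of the binding of the same protein without heating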
# T1 sequence (P03135 whole entry, chain 1 of 3, the tested form may be a part): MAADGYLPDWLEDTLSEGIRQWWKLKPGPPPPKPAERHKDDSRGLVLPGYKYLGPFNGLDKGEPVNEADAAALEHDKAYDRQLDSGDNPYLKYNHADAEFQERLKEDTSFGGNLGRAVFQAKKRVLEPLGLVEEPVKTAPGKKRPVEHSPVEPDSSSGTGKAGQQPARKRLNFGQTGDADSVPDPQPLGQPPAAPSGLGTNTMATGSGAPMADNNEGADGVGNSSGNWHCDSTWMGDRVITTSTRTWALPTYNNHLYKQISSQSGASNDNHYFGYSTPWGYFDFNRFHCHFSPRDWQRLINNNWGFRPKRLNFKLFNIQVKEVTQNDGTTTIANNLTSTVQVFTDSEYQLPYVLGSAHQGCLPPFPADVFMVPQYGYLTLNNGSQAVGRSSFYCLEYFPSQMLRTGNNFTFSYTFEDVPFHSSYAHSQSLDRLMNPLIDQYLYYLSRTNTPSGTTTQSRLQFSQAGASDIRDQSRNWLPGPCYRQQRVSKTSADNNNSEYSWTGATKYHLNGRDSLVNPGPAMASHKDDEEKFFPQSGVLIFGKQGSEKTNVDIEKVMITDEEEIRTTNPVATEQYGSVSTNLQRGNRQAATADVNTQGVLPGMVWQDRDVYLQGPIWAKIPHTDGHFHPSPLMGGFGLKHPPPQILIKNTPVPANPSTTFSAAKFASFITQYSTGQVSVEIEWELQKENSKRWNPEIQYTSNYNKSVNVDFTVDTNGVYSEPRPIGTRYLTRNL
# T1 sequence (P03135 139-735, tags left off, chain 2 of 3): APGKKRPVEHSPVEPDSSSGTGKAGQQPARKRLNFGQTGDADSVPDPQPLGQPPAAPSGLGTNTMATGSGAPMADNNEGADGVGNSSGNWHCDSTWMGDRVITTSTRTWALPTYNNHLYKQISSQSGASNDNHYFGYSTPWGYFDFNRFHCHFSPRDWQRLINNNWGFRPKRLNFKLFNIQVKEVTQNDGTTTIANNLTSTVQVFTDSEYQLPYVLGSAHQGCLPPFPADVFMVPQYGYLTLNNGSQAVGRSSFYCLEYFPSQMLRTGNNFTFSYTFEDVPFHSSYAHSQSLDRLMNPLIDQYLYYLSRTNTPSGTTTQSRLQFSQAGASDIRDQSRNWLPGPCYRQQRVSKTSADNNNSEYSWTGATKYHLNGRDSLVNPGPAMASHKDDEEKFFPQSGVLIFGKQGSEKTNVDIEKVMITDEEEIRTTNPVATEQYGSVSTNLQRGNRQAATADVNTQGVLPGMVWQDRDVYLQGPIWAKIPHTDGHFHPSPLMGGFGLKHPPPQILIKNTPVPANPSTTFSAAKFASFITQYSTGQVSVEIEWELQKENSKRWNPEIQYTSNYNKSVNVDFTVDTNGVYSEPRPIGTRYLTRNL
# T1 sequence (P03135 203-735, chain 3 of 3): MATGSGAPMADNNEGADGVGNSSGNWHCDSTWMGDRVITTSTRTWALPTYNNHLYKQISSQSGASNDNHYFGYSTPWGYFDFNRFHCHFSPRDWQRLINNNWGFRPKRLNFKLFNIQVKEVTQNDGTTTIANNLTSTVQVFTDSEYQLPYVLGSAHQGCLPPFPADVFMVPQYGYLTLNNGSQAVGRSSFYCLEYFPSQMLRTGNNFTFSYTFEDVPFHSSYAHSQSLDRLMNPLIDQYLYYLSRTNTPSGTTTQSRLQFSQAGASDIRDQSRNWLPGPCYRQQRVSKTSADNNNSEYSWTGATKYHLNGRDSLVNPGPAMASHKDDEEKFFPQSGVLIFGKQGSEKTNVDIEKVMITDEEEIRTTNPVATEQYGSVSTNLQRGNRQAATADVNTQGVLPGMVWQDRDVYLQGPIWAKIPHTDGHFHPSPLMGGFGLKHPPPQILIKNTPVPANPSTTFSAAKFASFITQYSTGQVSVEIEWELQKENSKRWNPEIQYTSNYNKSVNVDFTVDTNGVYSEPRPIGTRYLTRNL
# T2 sequence (P03135 whole entry, chain 1 of 3): as the sequence (P03135 whole entry, chain 1 of 3, the tested form may be a part) above
# T2 sequence (P03135 139-735, tags left off, chain 2 of 3): as the sequence (P03135 139-735, tags left off, chain 2 of 3) above
# T2 sequence (P03135 203-735, chain 3 of 3): as the sequence (P03135 203-735, chain 3 of 3) above
Binder,Residual activity [%] [2],Residual activity [%] [3],Residual activity [%] [4],Residual activity [%] [5],Residual activity [%] [6],also measured
B1,,,,,,amount of AAV2-EGFP bound per 1 mL of protein-immobilized gel [1]: 2.8e+12 VG/mL (gel)
B2,,,,,,amount of AAV2-EGFP bound per 1 mL of protein-immobilized gel [1]: 1.2e+13 VG/mL (gel)
B3,16.1%,9.6%,43.4%,7.9%,5.1%,amount of AAV2-EGFP bound per 1 mL of protein-immobilized gel [1]: 8.6e+09 VG/mL (gel)
B4,32%,20.3%,92.8%,17.3%,10%,
B5,49%,46.5%,71.9%,17.6%,5.6%,
B6,,,,,,Residual activity [%] [7]: 55.7%
B7,66.7%,54.5%,91.8%,52.2%,40.2%,
B8,29.8%,23.5%,90.5%,18.2%,13.2%,
B9,,,,,,Residual activity after heat treatment [%] [8]: 87%; Residual activity after heat treatment [%] [9]: 43%; Residual activity after heat treatment [%] [10]: 23%
B10,66%,46.7%,97.2%,64.4%,47.6%,
B11,64.5%,58.7%,92.7%,43.6%,34.8%,
B12,65.4%,52.4%,91.3%,70.5%,56.1%,
B13,74.5%,51%,86.6%,16.1%,8.9%,
B14,,,,,,Residual activity after heat treatment [%] [8]: 57%; Residual activity after heat treatment [%] [9]: 16%; Residual activity after heat treatment [%] [10]: 8%
B15,,,,,,Residual activity after heat treatment [%] [11]: 67%; Residual activity after heat treatment [%] [12]: 55%; Residual activity [%] [13]: 23.1%
B16,77.3%,57.3%,97.7%,52.8%,16.6%,
B17,,,,,,Residual activity after heat treatment [%] [11]: 57%; Residual activity after heat treatment [%] [12]: 54%; Residual activity [%] [7]: 50.7%
B18,55.6%,56.3%,84.1%,41.4%,28.3%,
B19,,,,,,Residual activity after heat treatment [%] [8]: 66%; Residual activity after heat treatment [%] [9]: 35%; Residual activity after heat treatment [%] [10]: 18%
B20,,,,,,Residual activity after heat treatment [%] [11]: 66%; Residual activity after heat treatment [%] [12]: 52%
B21,,,,,,Residual activity after heat treatment [%] [8]: 77%; Residual activity after heat treatment [%] [9]: 56%; Residual activity after heat treatment [%] [10]: 43%; Residual activity [%] [7]: 25.5%
B22,,,,,,Residual activity after heat treatment [%] [8]: 21%; Residual activity after heat treatment [%] [9]: 3%; Residual activity after heat treatment [%] [10]: 2%; Residual activity [%] [14]: 96.3%
B23,76%,70.5%,97.6%,70.7%,64.7%,Residual activity [%] [14]: 25.5%
